What all share (assay): cell-based or functional assay
The target of assay [1] is CSF-1R on cynomolgous monocytes (cynomolgous).
Assay [2] concerns the target human mutant CSF-1R L301S Y969F, full-length, on NIH 3T3 cells (human) (UniProt P07333).
The target in assay [3] is human wildtype CSF-1R (wt CSF-1R), full-length, on cells (human) (UniProt P07333).

Consider “Anti CSF-1R SC 2-4A5 (Santa Cruz Biotechnology, US) (antibody)”, for which, in assay [1], the % inhibition (of survival) = (100%-% survival), cynomolgous monocytes at 5 µg/ml antibody was 69% and the % survival of cynomolgous monocytes at 5 µg/ml antibody (CellTiterGlo) is 31%. Moreover, in assay [2], the Mutant CSF-1R IC30 (cell viability, 3D spheroids, CellTiterGlo) is 2.56 µg/mL and the Mutant CSF-1R IC50 (cell viability, 3D spheroids, CellTiterGlo) was determined as 10 µg/mL. In assay [3], the wtCSF-1R IC30 (cell viability, 3D spheroids, CellTiterGlo) amounted to 16.6 µg/mL and the wtCSF-1R IC50 (cell viability, 3D spheroids, CellTiterGlo) was 10 µg/mL.
For “goat polyclonal anti-CSF-1R antibody ab10676 (abcam)”, the Mutant CSF-1R IC30 (cell viability, 3D spheroids, CellTiterGlo) in assay [2] was over 20 µg/mL. Further, the wtCSF-1R IC30 (cell viability, 3D spheroids, CellTiterGlo) in assay [3] worked out at 14.2 µg/mL.
